The chains are these.
B1: Fab ABT1-6-23/ABT2-46 (Fab, V domains shown)
VH: EVQLLESGGGLVQPGGSLRLSCAASGFTFVRYDMAWVRQAPGKGLEWVSSIYKSGALTSYDSVKGRFTISRDNSKNTLYLQMNSLRAEDTAVYYCAKGWASFDYWGQGTLVTVSS
VL: DIQMTQSPSSLSASVGDRVTITCRASQSIIEWLSWYQQKPGKAPKLLIYRTSVLQSGVPSRFSGSGSGTDFTLTISSLQPEDFATYYCQQNEFWPFTFGQGTKVEIKR
B2: Fab ABT1-6-23/ABT2-13 (Fab, V domains shown)
V domain 1: B1 VH
V domain 2: EVQLLESGGGLVQPGGSLRLSCAASGFTFRDYVMYWARQAPGKGLEWVSRIDPMGSSTYYADSVKGRFTISRDNSKNTLYLQMNSLRAEDTAVYYCAKPEGNFDYWGQGTLVTVSS
B3: Fab ABT1-98/ABT2-76 (Fab, V domains shown)
VH: EVQLLESGGGLVQPGGSLRLSCAASGFTFDGYIMSWVRQAPGKGLEWVSTISPLGSVTYYADSVKGRFTISRDNSKNTLYLQMNSLRAEDTAVYYCAKKGPWFDYWGQGTLVTVSS
VL: B1 VL with I30D, E31R, S34A, T51G, V53I, N91V, E92A, F96P
B4: Fab ABT1-95/ABT2-13 (Fab, V domains shown)
VH: B2 V domain 2
VL: DIQMTQSPSSLSASVGDRVTITCRASQPIHGNLRWYQQKPGKAPKLLIYNISNLQSGVPSRFSGSGSGTDFTLTISSLQPEDFATYYCQQGYRWPVTFGQGTKVEIKR
B5: Fab ABT1-122/ABT2-108 (Fab, V domains shown)
VH: EVQLLESGGGLVQPGGSLRLSCAASGFTFAEYTMMWVRQAPGKGLEWVSRIGQDGKNTYYADSVKGRFTISRDNSKNTLYLQMNSLRAEDTAVYYCAKYTGRVGVHHLFDYWGQGTLVTSS
VL: DIQMTQSPSSLSASVGDRVTITCRASQPIWTELNWYQQKPGKAPKLLIYGSSSLQSGVPRFSGSGSGTDFTLTISSLQPEDFATYYCQQFAYFPATFGQGTKVEIKR
B6: Fab ABT1-141/ABT2-108 (Fab, V domains shown)
VH: B5 VH
VL: DIQMTQSPSSLSASVGDRVTITCRASQWIQKQLAWYQQKPGKAPKLLIYSSSYLQSGVPRFSGSGSGTDFTLTISSLQPEDFATYYCQQHLRVPFTFGQGTKVEIKR
B7: Fab ABT1-122/ABT2-65 (Fab, V domains shown)
VH: EVQLLESGGGLVQPGGSLRLSCAASGFTFEDYQMGWVRQAPGKGLEWVSSISAMGNRTYYADSVKGRFTISRDDSKNTLYLQMNSLRAEDTAVYYCAKNLVRTQSKMWMFDYWGQGTLVTVSS
VL: B5 VL
B8: Fab ABT1-141/ABT2-65 (Fab, V domains shown)
VH: B7 VH
VL: B6 VL
B9: Fab ABT1-96/ABT2-42 (Fab, V domains shown)
VH: EVQLLESGGGLVQPGGSLRLSCAASGFTFNQYNMFWVRQAPGKGLEWVSVISGSGRFTYADSVKGRFTISRDNSKNTLYLQMNSLRAEDTAVYYCAKGWWRRDPPFDYWGQGTLVTVSS
VL: DIQMTQSPSSLSASVGDRVTITCRASQYIEKWLTWYQQKPGKAPTLLIYRGSLLQSGVPRFSGSGSGTDFTLTISSLQPEDFATYYCQQTEYWPFTFGQGTKVEIKR
B10: Fab ABT1-96/ABT2-46 (Fab, V domains shown)
VH: B9 VH
VL: B1 VL
B11: Fab ABT1-96/ABT2-13 (Fab, V domains shown)
V domain 1: B9 VH
V domain 2: B2 V domain 2
B12: ABT1-95-A3 (other)
VL: DIQMTQSPSSLSASVGDRVTITCRASKPGVRNMRWYQQKPGKAPKLLIYSVSYLEPGVPSRFSGSGSGTDFTLTISSLQPEDFATYHCLQGYRWPPTFGQGTKVEIKR
B13: ABT1-95-181 (other)
VL: B12 VL with G29I
B14: ABT1-95-A6 (other)
VL: B12 VL with S50A, V51K, L89K, P96V, T97Q
B15: ABT1-95-A5 (other)
VL: B12 VL with K27R, P28T, G29P, M33L, V51R, Y53F
B16: ABT1-96 (other)
VH: EVQLLESGGGLVQPGGSLRLSCAASGFTFNQYNMFWVRQAPGKGLEWVSVISGSGRFTYYADSVKGRFTISRDNSKNTLYLQMNSLRAEDTAVYYCAKGWWRRDPPFDYWGQGTLVTVSS
notes: VH dAb
B17: ABT1-6-23 (other)
VH: EVQLLESGGGLVQPGGSLRLSCAASGFTFVRYDMAWVRQAPGKGLEWVSSIYKSGALTSYADSVKGRFTISRDNSKNTLYLQMNSLRAEDTAVYYCAKGWASFDYWGQGTLVTVSS
notes: VH dAb
B18: ABT1-95-13 (other)
VL: B12 VL with K27Q, G29I, M33L, V51S, P56R, L89Q, P96V
notes: VK dAb
B19: ABT1-95-8 (other)
VL: B4 VL with H30Q, N50S, I51S, N53Y, Q55E, S56R, Y87H
notes: VK dAb
B20: ABT1-141 (other)
VL: DIQMTQSPSSLSASVGDRVTITCRASQWIQKQLAWYQQKPGKAPKLLIYSSSYLQSGVPSRFSGSGSGTDFTLTISSLQPEDFATYYCQQHLRVPFTFGQGTKVEIKR
notes: VK dAb
B21: ABT1-95-11 (other)
VL: B4 VL with H30Q, K42I, N50S, I51S, N53Y, Q55E, S56R, Q79H, F83L, Y87H
notes: VK dAb
B22: ABT1-95-14 (other)
VL: B12 VL with K27Q, G29I, R31K, M33L, V51S, P56R, L89Q, P96V
notes: VK dAb
B23: ABT1-98 (other)
VH: B3 VH
notes: VH dAb

Where a chain is given by its changes, count along the chain named.

One assay deals with T1, human IL-1α (human, UniProt P01583 113-271).
T1 sequence (looked up): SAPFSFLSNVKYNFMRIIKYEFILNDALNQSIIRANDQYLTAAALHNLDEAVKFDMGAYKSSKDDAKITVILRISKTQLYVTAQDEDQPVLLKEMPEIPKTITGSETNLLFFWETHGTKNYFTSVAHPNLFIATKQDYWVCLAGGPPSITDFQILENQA
The experiment in a line: cell-based or functional assay.
Regarding B1, the “Fab IL-1α ND10” value came out at 4 nM.

Take B2: the “Fab IL-1α ND10” value was 40 nM.

With B3, the “Fab IL-1α ND10” value is 100 nM.

As for B4, the “Fab IL-1α ND10” value is 200 nM.

For the molecule B5, the “Fab IL-1α ND10” value came to 3 nM.

Consider B6, for which the “Fab IL-1α ND10” value was 10 nM.

With B7, the “Fab IL-1α ND10” value came out at 40 nM.

With B8, the “Fab IL-1α ND10” value came out at 80 nM.

In the case of B9, the “Fab IL-1α ND10” value stood at 3 nM.

In the case of B10, the “Fab IL-1α ND10” value was found to be 6 nM.

As to B11, the “Fab IL-1α ND10” value was found to be 0.9 nM.

The target of a further assay is human IL-1β (human, UniProt P01584 117-269). The experiment in a line: cell-based or functional assay.
Regarding B1, the “Fab IL-1β ND10” value was determined as 150 nM.

Turning to B2, the “Fab IL-1β ND10” value was > 500 nM.

Consider B3, for which the “Fab IL-1β ND10” value came to 1500 nM.

With B4, the “Fab IL-1β ND10” value was 400 nM.

With B5, the “Fab IL-1β ND10” value is 50 nM.

For the molecule B6, the “Fab IL-1β ND10” value stood at 15 nM.

Take B7: the “Fab IL-1β ND10” value came to 1500 nM.

In the case of B8, the “Fab IL-1β ND10” value is 300 nM.

As for B9, the “Fab IL-1β ND10” value stood at 10 nM.

Consider B10, for which the “Fab IL-1β ND10” value came to 400 nM.

Consider B11, for which the “Fab IL-1β ND10” value stood at 80 nM.

A further assay deals with T1, human IL-1α. The experiment in a line: cell-based or functional assay. This is another data set of the same source.
In the case of B12, the “MRC5 ND50” value amounted to 11 pM.

Consider B13, for which the “MRC5 ND50” value turned out to be 14 pM.

On to B14, for which the “MRC5 ND50” value stood at 24 pM.

Turning to B15, the “MRC5 ND50” value was 16 pM.

For the next assay, the target named is T2, human IL-1α (human, UniProt P01583 113-271).
T2 sequence (looked up): T1 sequence (looked up)
Kind of assay: cell-based or functional assay.
B16 had an ND50 of 17 nM.

B17 displayed an ND50 of 30 nM.

Take B18: the ND50 turned out to be 0.12 nM.

In turn, B19 registered an ND50 of 1 nM.

In turn, B20 displayed an ND50 of 142 nM.

Molecule B21 registered an ND50 of 0.3 nM.

B22: the ND50 is 0.25 nM.

For B23, the ND50 was < 100 nM.

Another assay deals with T2, human IL-1α. Kind of assay: BIAcore (SPR).
As for B16, binding was characterised by a dissociation constant (Kd) of 1.1 nM.

In turn, B17 came in with a Kd of 61 nM.

As for B20, the Kd was 300 nM.

B23 came in with a Kd of 13 nM.

The target in a further assay is T2, human IL-1α. Kind of assay: Table 62 KD; BIAcore presumed. (In SPR one partner is held on a chip, and binding of the other changes the refractive index at the surface.)
Regarding B17, the Kd turned out to be 6 nM.

B18 came in with a Kd of 0.9 nM.

Regarding B19, the Kd turned out to be 2.1 nM.

Molecule B21 showed a Kd of 1.1 nM.

Molecule B22 had an equilibrium dissociation constant (Kd) of 1.2 nM.

The next assay concerns the target T2, human IL-1α. The experiment in a line: Table 62 IC50; RBA presumed.
As for B17, it took 30 nM to reach half-maximal inhibition (IC50).

Molecule B18 had an IC50 of 0.3 nM.

With B19, the 50% inhibitory concentration (IC50) was 0.8 nM.

B21 registered a concentration for half-maximal inhibition (IC50) of 0.9 nM.

On to B22, for which the IC50 amounted to 0.3 nM.

For a further assay, the target named is T2, human IL-1α. The experiment in a line: cell-based or functional assay. This is another data set of the same source.
In the case of B16, the “MRC5 ND50” value amounted to 11 nM.

As to B20, the “MRC5 ND50” value was determined as 50 nM.

As to B23, the “MRC5 ND50” value was 30 nM.

A word on the Kd: it is a measure of binding affinity in units of concentration. Lower therefore signals higher affinity. In general, IC50 refers to the midpoint of a concentration-inhibition curve. A higher IC50 goes with weaker potency.
